Columns and labels:
ActRIIA-mFc [1] = target: T1, ActRIIA-mFc (human, UniProt P27037 21-135); assay: SPR (Biacore), ligand amine-coupled on CM5 chip, ActRIIA-mFc as analyte
T1 construct: also called RAP-011; sotatercept analog RAP-011; not shown: "minimal linker"; mouse Fc domain
Method: GDF11 or activin A were immobilized on a Biacore™ CM5 chip using standard amine-coupling procedure. ActRIIA-hFc and ActRIIA-mFc proteins were loaded onto the system, and binding was measured. […] Using a similar binding assay, ActRIIA-hFc was determined to have high to moderate affinity for other TGF-beta superfamily ligands including, for example, activin B, GDF8, BMP6, and BMP10. ActRIIA-mFc behaved similarly.

ActRIIA-mFc [2] = target: T1, ActRIIA-mFc; assay: similar binding assay (Biacore)

T1 sequence (P27037 21-135): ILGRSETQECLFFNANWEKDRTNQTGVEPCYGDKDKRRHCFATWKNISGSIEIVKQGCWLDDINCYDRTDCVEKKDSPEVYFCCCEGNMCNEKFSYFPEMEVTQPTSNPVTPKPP

Row | binding result (ActRIIA-mFc [1]) | binding result (ActRIIA-mFc [2]) | Binder
1 | binds | – | GDF11 (ligand, UniProt O95390 299-407, looked up, Immobilized on a Biacore CM5 chip by amine coupling) NLGLDCDEHSSESRCCRYPLTVDFEAFGWDWIIAPKRYKANYCSGQCEYMFMQKYPHTHLVQQANPRGSAGPCCTPTKMSPINMLYFNDKQQIIYGKIPGMVVDRCGCS
2 | – | binds | BMP10 (ligand, UniProt O95393 317-424, looked up) NAKGNYCKRTPLYIDFKEIGWDSWIIAPPGYEAYECRGVCNYPLAEHLTPTKHAIIQALVHLKNSQKASKACCVPTKLEPISILYLDKGVVTYKFKYEGMAVSECGCR

From patent publication US20240174733A1 (ACCELERON PHARMA, published 2024)
